“Also recorded” adds a separate entry of the source.
Experiments:
[1] = system: Prkci^fl/flPrkcz^fl/fl; Villin-Cre tumors; test: scRNAseq, CellphoneDB and multiplex staining of Prkci^fl/flPrkcz^fl/fl; Villin-Cre tumors treated with PEGPH20; assay type: in vivo, mouse
Excerpt: FIG. 10A illustrates experimental design and workflow of scRNAseq. Tumors from Veh (n=5) and PEGPH20-treated mice (n=3) were dissected and digested into single-cell suspensions for sequencing.
Primary antibody dilutions were optimized individually at H220 retrieval using the Leica BondRx Automated IHC stainer and evaluated by a board-certified pathologist for specificity. Multiplexed staining was optimized and then performed using the Automated Opal 7-Color IHC Kit (NEL821001KT) from Akoya Biosciences. A library for spectral separation was generated by staining control tissue with each opal fluor conjugated to CD20. Slides were imaged in the Vectra Polaris Automated Quantitative Pathology Multispectral Imaging System. Exposure times were maximized under the constraint that no pixel saturates the detector (Patel and Rodig, 2020; Patel et al., 2019).
Tumors were minced thoroughly and digested by 0.5 mg/ml Liberase TH (Sigma) for 30 minutes at 37° C. Dead cells were removed by Annexin V (STEMCELL technologies). scRNAseq libraries were generated using the Chromium Single Cell 30 Reagent Kit v2 (10× Genomics). Cells were loaded onto the 10× Chromium Single Cell Platform (10× Genomics) at a concentration of 2,000 cells per μl (Single Cell 3′ library and Gel Bead Kit v.2) as described in the manufacturer's protocol (10× User Guide, Revision B). Generation of gel beads in emulsion (GEMs), barcoding, GEM-RT clean-up, complementary DNA amplification and library construction were all performed as per the manufacturer's protocol. Individual sample quality was checked using a Bioanalyzer Tapestation (Agilent). Qubit was used for library quantification before pooling. The final library pool was sequenced on an Illumina NovaSeq6000 instrument using a S1 flow cell. Average cell recovery for Prkci^f/fPrkcz^f/f; Villin-Cre tumors was […] with a total of 209,907 cells captured at a mean depth of 14,568 read per cell and 895 mean genes per cell.
For scRNA-seq, raw sequence reads were quality-checked using FastQC software. The Cell Ranger version 2.1.1 software suite from 10× Genomics (https://support.10× genomics.com/single-cell-gene-expression/software/downloads/latest) was used to process, align, and summarize unique molecular identifier (UMI) counts against the mouse mm10 assembly reference genome analysis set, obtained from the University of California Santa Cruz (UCSC). Raw, unfiltered count matrices were imported into R for further processing. Raw UMI count matrices were filtered using the Seurat v 3.0 R package (Butler et al., 2018) to remove: barcodes with very low (less than 200, empty wells) and very high (more than 3000, probably doublets) total UMI counts; matrices for which a high percentage of UMIs originated from mitochondrial features (more than 12%); and matrices for which fewer than 250 genes were expressed. Subsequently, the data were normalized using the SCTransform function, regressing out the following variables: total number of UMIs per cell and percentage of mitochondrial UMIs. Following normalization, the principal components were computed. The top principal components were identified using the ElbowPlot function and used for the UMAP dimensionality reduction. For clustering, Seurat was used in combination with Harmony software (Korsunsky et al., 2019) to correct the potential effects of technical differences between sequencing batches. The RunHarmonyo, RunUMAP( ), FindNeighbors( ), and FindClusters( ) functions were run for clustering and the percentage of mitochondrial features was considered to be a source of unwanted variation and was regressed out using the Seurat package. […] For the differential gene expression analysis, the FindMarker( ) function with default parameters was run for comparison between populations. The cell groups were annotated based on the marker gene analysis and canonical markers from the literature. […]

[2] = system: MTO-sgPrkci/sgPrkcz tumors; test: Subcutaneous sgPrkci/Prkcz MTO tumors: PEGPH20 combined with anti-PD-L1; assay type: in vivo, mouse
Method: FIGS. 13B-13F illustrate Subcutaneous injection of sgPrkci/Prkcz MTOs in WT mice treated twice a week with PEGPH20 (0.0375 mg/kg) and αPD-L1 (5 mg/kg) for 4 weeks (n:Veh=14, PEGPH20-treated=15 and PEGPH20-treated with αPD-L1=15). Experimental design (B); tumor volume (C); tumor weight (D); IHC for HA, αSMA, CD8, FOXP3, S100a8, and CD19 of tumors (E) and quantification (F). Scale bars, 100 μm. Results are shown as mean±SEM *p<0.05, **p<0.01, ***p<0.001, ****p<0.0001.
For colonoscopy-guided orthotopic injection in the colon submucosa using mouse tumor organoids (MTOs), a 10 μl organoid suspension of equivalent to 40-50 MTOs admixed with 10% Matrigel (Corning) was directly injected into the colonic submucosa of 7 weeks old C57BL/6 mice. 4 weeks after implantation, tumors were collected and analyzed histologically. Orthotopic tumor sizes were measured by caliper after mice were sacrificed. For xenografts using MTOs, a 100 μl cell suspension of equivalent to 0.5×10^6 cells of sgPrkci/Prkcz or sgC MTOs admixed with 30% Matrigel (Corning) was directly injected subcutaneously into the right flank of 7 weeks old C57BL/6 mice. Tumors were allowed to grow for 14 days, and mice were randomly divided to receive vehicle, n=20, or PEGPH20 (0.0375 mg/kg, 2 days each week) via retro-orbital injection, n=18. Tumors were measured twice a week. Mice were euthanized three weeks after treatment and tumors were analyzed histologically. For the combination therapy of anti-PD-L1 (Clone B7-H1, Bioxcell) antibody and PEGPH20, mice were injected with a dose of 5 mg/kg (body mass) of anti-PD-L1 antibody in combination with PEGPH20 (n=15) twice a week for 4 weeks until they were sacrificed.

[3] = scRNAseq tumor epithelial cells

B1: PEGPH20: a PEGylated version of human recombinant PH20 hyaluronidase; clinical-grade pegylated hyaluronidase (Halozyme Therapeutics) (protein, UniProt P38567 36-490, looked up)
Hyaluronidase PH-20: LNFRAPPVIPNVPFLWAWNAPSEFCLGKFDEPLDMSLFSFIGSPRINATGQGVTIFYVDRLGYYPYIDSITGVTVNGGIPQKISLQDHLDKAKKDITFYMPVDNLGMAVIDWEEWRPTWARNWKPKDVYKNRSIELVQQQNVQLSLTEATEKAKQEFEKAGKDFLVETIKLGKLLRPNHLWGYYLFPDCYNHHYKKPGYNGSCFNVEIKRNDDLSWLWNESTALYPSIYLNTQQSPVAATLYVRNRVREAIRVSKIPDAKSPLPVFAYTRIVFTDQVLKFLSQDELVYTFGETVALGASGIVIWGTLSIMRSMKSCLLLDNYMETILNPYIINVTLAAKMCSQVLCQEQGVCIRKNWNSSDYLHLNPDNFAIQLEKGGKFTVRGKPTLEDLEQFSEKFYCSCYSTLSCKEKADVKDTDAVDVCIADGVCIDAFLKPPMETEEPQIFYNASPSTLS
modifications: PEGylated
TGFβ signals provided by myeloid cells and CD4+ Tregs ([1]; CellphoneDB): reduced | communications between TRSC and trophocytes ([1]; CellphoneDB): induced a high number | interaction between Spp1-Ptger4/Cd44 in fibroblasts and Spp1 interactions between telocytes and CD4+ Tregs ([1]; CellphoneDB): eliminates | interactions between TFSCs and telocytes ([1]; CellphoneDB): switching off | secretion of Ccl27a in TRSCs, Ccl28 in TcTAs and residual TFSCs, Ccl25 in TcTAs and TFSCs ([1]; CellphoneDB): increased | secretion of growth signals from telocytes to myeloid cells and CD4+ Tregs ([1]; CellphoneDB): repressed | Rspo1/3 in trophocytes ([1]; CellphoneDB, interact with Lgr5 in TRSC): enriched | presence of TFSCs (ANXA10+ staining) ([1]; IHC): strongly reduced | presence of TRSCs (CLU+ staining) ([1]; IHC): not reduced | ANXA10+/Alcian Blue and ANXA10+/MUC2+ TGCs ([1]; IHC and multiplex imaging): reduced | flow from TcTA to TFSC ([1]; RNA velocity trajectory analysis): total disruption | myeloid cells and CD4+ Tregs in tumors ([1]; VECTRA multiplex imaging): concomitant reduction | B, plasma, and CD8+ T cells infiltrating the tumors ([1]; VECTRA multiplex imaging, CD138 staining): allows CD8+ T cell infiltration; also recorded: strong recruitment | collagens, matrix metalloproteinases, and signatures related to matrix remodeling in the intermediate fibroblasts ([1]; differential gene expression): substantial reduction | vessel normalization signature ([1]; endothelial compartment): increased | angiogenesis, glycolysis, and hypoxia signatures ([1]; endothelium compartment): reduced | signatures related to interferon activation ([1]; endothelium compartment): increased | trophocyte levels (PDGRA−/CD31−/CD34+) ([1]; immunofluorescence, mainly at the crypt-bottom positions): strongly increased | PDGFRA+/NRG1+ fibroblasts at the luminal border ([1]; multiplex immunofluorescence): significantly reduced | expression of several ICIs, including Ctla4, in CD4+ Tregs ([1]; scRNAseq): higher expression | Cd47 immune checkpoint inhibitor expression ([1]; scRNAseq / CellphoneDB): clear increase | signatures corresponding to CD8+ T cells exhaustion, stem-like, and expansion ([1]; scRNAseq CD8+ T cells): enrichment | CD4+ Treg cells ([1]; scRNAseq T cells): reduced | CD8+/Treg ratio ([1]; scRNAseq T cells): increased | proportion of CD8+ Trm and CD8+ Tex cells ([1]; scRNAseq T cells): increased | proportion of tip cells and postcapillary and immature endothelial cells ([1]; scRNAseq endothelial compartment): reduced | proportion of intermediate fibroblast ([1]; scRNAseq fibroblasts): not affected | trophocytes ([1]; scRNAseq fibroblasts): concomitant accumulation | telocyte population ([1]; scRNAseq fibroblasts, HA degradation in vivo): virtually eliminated | proportion of TGCs ([1]; scRNAseq goblet cells): strongly reduced | levels of myeloid cell types (TAN, TAM, IM) ([1]; scRNAseq immune cells): reduced | proportion of T and B cells ([1]; scRNAseq immune cells): increased | proportion of TFSCs [1, 3]: clear reduction | proportion of TRSCs in the persistent tumor cell population [1, 3]: relative enrichment | proportion of TcTAs [1, 3]: limited proportional reduction | vessel disorganization signature ([1]; whole endothelial compartment): reversed | CD8+ T and B cells in the tumor ([2]; IHC CD8, CD19): sufficient to bring | amount of immunosuppressive myeloid and Tregs ([2]; IHC S100a8, FOXP3): reduce | HA content and intensity of αSMA+ stromal staining ([2]; IHC, PEGPH20 0.0375 mg/kg, 4 weeks): reduced

— patent publication US20240377400A1, “METHODS FOR TREATING A SUBTYPE OF COLORECTAL CANCER” (Cornell University, priority 2021, published 2024)
